Here are results for eight molecules from patent publication US20230265187A1 (published 2023).

Usually Kd stands for the constant that tells how readily two partners part at equilibrium.

In assay [1] the target is T1, his-tagged murine TIGIT (Acro Biosystems #TIT-M52E6) (murine, UniProt P86176 29-148, limits assumed).
T1 construct: Bought protein; also called mouse his-tagged TIGIT; not shown: his tag
T1 sequence (looked up): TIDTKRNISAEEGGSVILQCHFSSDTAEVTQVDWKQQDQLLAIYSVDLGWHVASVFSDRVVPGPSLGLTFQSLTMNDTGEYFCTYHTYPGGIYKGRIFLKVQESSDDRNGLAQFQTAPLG
In words: SPR (Carterra LSA), scFv-Fc captured, His-TIGIT analyte; repeat. On the procedure: (§1) Binding affinities of anti-TIGIT antibodies to human, cyno, and murine TIGIT were measured by Surface Plasmon Resonance (SPR) on a Carterra LSA instrument. Goat anti-human Fc antibody was amine coupled to a HC30M chip. ScFv-Fc supernatants were diluted 30-fold with HBSTE and were captured by the anti-human Fc coupled HC30M chip. A 1:2 dilution series of his-tagged human TIGIT, starting at 400 nM, was injected onto the chip for binding. A dilution series was also carried out for cyno TIGIT and murine TIGIT. Data were analyzed using the Carterra™ Kinetics software.

In assay [2] the target is T2, His-tagged cynomolgus monkey TIGIT (Acro Biosystems #TIT-05223) (cynomolgus monkey, UniProt A0A7N9I9V4 89-209).
T2 construct: Bought protein; also called cyno TIGIT; cynomolgus TIGIT; not shown: His tag
The assay is described as above. As for the experimental part: as §1

Assay [3] has as its target T1, his-tagged murine TIGIT (Acro …). In words: ELISA, coated His-TIGIT, 1 ug/ml.
The target of assay [4] is T2, His-tagged cynomolgus monkey TIGIT …. Put plainly: ELISA, coated His-TIGIT, 1 ug/ml.
In assay [5] the target is T3, his-tagged human TIGIT (Acro Biosystems #TIT-H52H3) (human, UniProt Q495A1 22-141).
T3 construct: Bought protein; also called His-tagged-TIGIT (human); not shown: his tag
T3 sequence (looked up): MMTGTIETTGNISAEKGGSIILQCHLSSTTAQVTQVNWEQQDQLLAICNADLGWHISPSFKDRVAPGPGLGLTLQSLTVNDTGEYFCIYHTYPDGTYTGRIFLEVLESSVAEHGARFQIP
In words: ELISA, coated His-TIGIT, 1 ug/ml.

Assay [6] addresses T4, human TIGIT on Jurkat cells (TIGIT/NFAT reporter Jurkat cells, BPS Bioscience #60538); Promega TIGIT Effector … (human, UniProt Q495A1 22-244).
T4 sequence (looked up): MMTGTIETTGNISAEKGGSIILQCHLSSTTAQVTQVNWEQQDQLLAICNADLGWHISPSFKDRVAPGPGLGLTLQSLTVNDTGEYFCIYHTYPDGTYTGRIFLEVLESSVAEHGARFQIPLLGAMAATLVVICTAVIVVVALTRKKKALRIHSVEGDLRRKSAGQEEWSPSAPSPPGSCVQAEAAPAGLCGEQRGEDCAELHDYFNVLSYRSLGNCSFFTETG
Put plainly: cell-based or functional assay.

Assay [7] has as its target T4, human TIGIT on Jurkat cells (TIGIT/NFAT …). In words: flow cytometry, TIGIT/NFAT Jurkat cells, 10 ug/ml.
Assay [8] deals with T1, his-tagged murine TIGIT (Acro …). Put plainly: SPR (Carterra LSA), scFv-Fc captured, His-TIGIT analyte. A digest of the protocol:
(§2)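 Affinity from His-TIGIT analyte injected in 1:2 serial dilution over antibody captured as scFv-Fc via amine-coupled goat anti-human Fc on an HC30M surface. Supernatants diluted 30-fold in HBSTE; kinetic fitting.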

Assay [9] addresses T2, His-tagged cynomolgus monkey TIGIT …. The assay is described as above. A digest of the protocol:
as §2

The target in assay [10] is T3, his-tagged human TIGIT (Acro Biosystems …). Described as above. A digest of the protocol:
as §2

T2 sequence (A0A7N9I9V4 entry or part of it): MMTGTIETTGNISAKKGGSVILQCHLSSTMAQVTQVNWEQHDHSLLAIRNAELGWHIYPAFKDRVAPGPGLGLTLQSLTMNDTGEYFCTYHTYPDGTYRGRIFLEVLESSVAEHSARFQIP

B1: 43586p1.2.E1 (scFv, V domains shown)
VH: EVQLLESGGGLVQPGGSLRLSCAASGFTFSDYLMTWVRQAPGKELEWVSTITWDGDRTYYADSVKGRFTISRDNSKNTLYLQMNSLRAEDTAVYYCAKHWTVFQYGMDVWGQGTTVTVSS
VL: QSVLTQPPSASGTPGQRVTISCSGTISNIEIKYVSWYQQLPGTAPKLLIYGNHQRPSGVPDRFSGSKSGTSASLAISGLQSEDEADYYCSSWENDLKSWVFGGGTKLTVL
As to B1, the Kd in assay [1] is 22 nM; in [2], 3.2 nM; in assay [8], 7.34 nM; in assay [9], 6.27 nM; in assay [10] it was 0.029 nM. In addition, the “Elisa OD450” value was 2.11 OD450 in assay [3], 1.85 OD450 in [4] and 2.25 OD450 in assay [5]. Moreover, in assay [6], the “max. signal (% of 22G2)” value was 111 % of 22G2. The same molecule came in with an MFI in assay [7] of 9480 MFI.

B2: 43586p1.2.F9 (scFv, V domains shown)
VH: EVQLLESGGGLVQPGGSLRLSCAASGFTFDDYVMSWVRQAPGKGLEWVSLINWNGDKTYYADSVKGRFTISRDNSKNTLYLQMNSLRAEDTAIYYCAKHWIVFQYGMDVWGRGTTVTVSS
VL: QSVLTQPPSASGTPGQRVTISCSGSISNIETKYVSWYQQLPGTAPKLLIYNSDQRPSGVPDRFSGSKSGTSASLAISGLQSEDEADYYCVSWDASLKSWVFGGGTKLTVL
As for B2, the Kd in assay [1] was found to be 2.1 nM; in assay [2], 2 nM; in assay [8] it was 4.95 nM; in assay [9], 12.2 nM; in assay [10], 0.338 nM. In addition, the “Elisa OD450” value in assay [3] came to 2.14 OD450; in assay [4], 1.71 OD450; in assay [5], 2 OD450. The “max. signal (% of 22G2)” value in [6] was 127 % of 22G2. Further, the MFI in assay [7] amounted to 9110 MFI.

B3: 43586p1.2.E2 (scFv, V domains shown)
VH: EVQLLESGGGLVQPGGSLRLSCAASGFTFTSYLMSWVRQAPGKGLEWVSTITWDGDRTYYADSVKGRFTISRDNSKNTLYLQMNSLRVGDTAVYYCAKHWTVFQYGMDVWGQGTTVTVSS
VL: QSVLTQPASASGTPGQRVTISCSGTISNIETKYVSWYQQLPGTAPKLLIYGNHQRPSGVPDRFSGSKSGTSASLAISGLQSEDEADYYCASWENDLKSWVFGGGTKLTVL
Consider B3, for which the Kd in assay [1] amounted to 67 nM; in assay [2], 4.8 nM; in [8], 122 nM; in assay [9], 9.5 nM; in assay [10], 0.0486 nM. In addition, the “Elisa OD450” value in assay [3] turned out to be 1.78 OD450; in assay [4], 1.73 OD450; in assay [5], 2.02 OD450. In assay [6], the “max. signal (% of 22G2)” value is 125 % of 22G2. In [7], this molecule came in with an MFI of 9320 MFI.

B4: 43586p1.2.G4 (scFv, V domains shown)
VH: EVQLLESGGGLVQPGGSLRLSCAASGFTFDDYVMSWVRQAPGKGLEWVSLINWNGDKTYYADSVKGRFTISRDNSKNTLYLQMNSLRAEDTAVYYCARHWIVFQYGLDVWGQGTTVTVSS
VL: QSVLTQPLSASGTPGQRVTISCSGVSSNIEIKYVSWYQQLPGTAPKLLIYNSHQRPSGVPDRFSGSKSGTSASLAISGLQSEDEADYYCTSWDDRLKSWVFGGGTKLTVL
Turning to B4, the Kd was found to be 4.8 nM in [1]; 0.582 nM in assay [2]; 6.89 nM in [8]; 3.19 nM in assay [9]; 0.394 nM in assay [10]. Moreover, the “Elisa OD450” value in assay [3] was determined as 2.04 OD450; in assay [4] it was 1.88 OD450; in assay [5] it was 2.02 OD450. The “max. signal (% of 22G2)” value in assay [6] was 101 % of 22G2. Also, the MFI in [7] was found to be 9340 MFI.

B5: 43586p1.2.E4 (scFv, V domains shown)
VH: EVQLLESGGGLVQPGGSLRLSCAASGFTFSDYLMTWVRQAPGKGLEWVSTITWDGDRTYYADSVKGRFTISRDNSKNTLYLQMNSLRAEDTAVYYCAKHWTVFQYGMDVWGQGTTVTVSS
VL: QSVLTQPPSASGTPGQRVTISCSGTISNIEIKYVSWYQQLPGTAPKLLIYGNHQRPSGVPDRFSGSKSGTSASLAISGLQSEDEADYYCSSWENDLKSWVFGGGTKLTVL
Turning to B5, the Kd in assay [1] is 18 nM; in [2], 2.8 nM; in assay [8], 66.5 nM; in [9] it was 25.4 nM; in [10], 0.117 nM. Also, the “Elisa OD450” value in assay [3] came out at 2.03 OD450; in assay [4], 1.86 OD450; in assay [5], 2.09 OD450. Further, the “max. signal (% of 22G2)” value in [6] was 113 % of 22G2. In assay [7], this molecule gave an MFI of 9550 MFI.

B6: 43586p1.2.G10 (scFv, V domains shown)
VH: EVQLLESGGGLVQPGGSLRLSCAASGFTFDDYVMSWVRQAPGKELEWVSLINWNGDKTCYADSVKGRFTISRDNSKNTLYLQMNSLRAEDTAIYYCAKHWIVFQYGMDVWGQGTTVTVSS
VL: QSVLTQPPSASGTPGQRVTISCSGSISNIETKYVSWYQQLPGTAPKLLIYNSDQRPSGVPDRFSGSKSGTSASLAISGLQSEDEADYYCVSWDASLKSWVFGGGTKLTVL
Consider B6, for which the Kd was 10 nM in assay [1]; 6.3 nM in [2]; 15.6 nM in assay [8]; 14 nM in [9]; 0.941 nM in assay [10]. Also, the “Elisa OD450” value in assay [3] came to 2.1 OD450; in assay [4], 1.52 OD450; in assay [5] it was 1.99 OD450. Also, the “max. signal (% of 22G2)” value in [6] is 96 % of 22G2. The same molecule gave an MFI in assay [7] of 10100 MFI.

B7: 43586p2.D11 (scFv, V domains shown)
VH: EVQLLESGGGLVQPGGSLRLSCAASGFTFDDYVMSWVRQAPGKGLEWVSLINWSGGTTYYADSVKGRFTISRDNSKNTLYLQMNSLRAEDTAVYYCAKHWIVYQYGMDVWGQGTTVTVSS
VL: QSVLTQPSSASGTPGQRVAISCSGTISNIETKYVSWYKYVSWYQQLPGTAPKLLIYNNVQRPSGVPDRFSGSQSGTSASLAISGLQSEDEAHYYCASWEGGLNSWVFGGGTKLTVL
For B7, the Kd in assay [1] stood at 0.744 nM; in [2] it was 4.4 nM; in [8] it was 41.4 nM; in assay [9], 87.4 nM; in assay [10], 0.558 nM. In addition, the “Elisa OD450” value in assay [3] was 1.61 OD450; in assay [4] it was 1.6 OD450; in [5], 2.01 OD450. Also, in assay [6], the “max. signal (% of 22G2)” value was 102 % of 22G2. In [7], this molecule displayed an MFI of 9530 MFI.

B8: 43352p1.H8 (scFv, V domains shown)
VH: DVQLVESGGGVVRPGESLRLSCAASGFNFSTYAMNWVRQAPGEGLEWVSGISGRSSGDTTYYADSVRGWFTVSRDNSKNTLYLQMSSLRAEDTAVYYCARETWIRGYFDYWGLGTLVTVSS
VL: QSVLTQPPSASGTPGQRVTISCSGSRSNLGNNLVYWYQQLPGTAPKLLIYFNNERPSGVPDRFSGSKSGTSASLAISGVQSEDEADYYCATWDDSLNGWVFGGGTKLTVL
Take B8: the Kd in assay [1] is 0.74 nM; in assay [2], 114 nM; in assay [8], 1.14 nM; in [9] it was 120 nM; in assay [10] it was 0.194 nM. Moreover, the figures for the “Elisa OD450” value in [3], in assay [4] and in assay [5] were 1.85 OD450, 0.363 OD450 and 1.8 OD450, respectively. The “max. signal (% of 22G2)” value in assay [6] is 96 % of 22G2. In assay [7], this molecule displayed an MFI of 10300 MFI.
